Test results from PMC3503981.

Target: PfUDN, N-terminal fragment of Plasmodium falciparum UvrD helicase (P. falciparum 3D7)

Substance: PfMLH (P. falciparum MutL homologue) (natural protein)
- stimulation of the unwinding (helicase) activity of PfUDN (10 nM) on the 3′ to 5′ direction-specific substrate 3B by PfMLH (8 and 16 nM) pre-incubated with the substrate, against PfUDN alone: 22 to 36%
